Assay: soluble on expression in E. coli; label from the status in PepcDB or PDB records
With “MARNAEKAMTALARWRRMKEEEERGPIARRPHDVKDCRNLSDAERFRREIVRDASKKITAIQNPGLGEFKLRDLNDEVNRLIKLKHAWEQRIRELGGTDYRKYAQKELDAIGRETGNSRGYKYFGAAKDLPGVRELFEKSTEGEEQRRHRADLLRNIDAHYFGYLDDEDGRLIPLEKLIEEKNIERINKEFAEKQAQKQQTASDAAPENIYKVEEDDDDDLETQESTVIGEDGRPMTIRHVLLPTQQDIEEMLLEQKKQELMAKYLD” the “soluble on expression in E. coli” value was “not soluble”. With “MFQLSVQDIHPGQQAGNKEEAIRQVAAALVSAGNVADGYVNGMLAREQQTSTFLGNGIAIPHGTTDTRDQVLKTGVQVFQFPQGVTWGEGQTAYVAIGIAASSDEHLGLLRQLTHVLSDDAVAAQLQSATTAEELRALLMGEKQSEALKLDNETLSLDVAASDLLTLQALNAARLKEVGAVDAAFVSHVINDTPLNLGQGVWLNDSAEGNLRSAVAVSRAANAFTRDEQPVSLLVTVAMADEQPTAVLNRLSKLLLDKKAEHLLKADAATVLALLTSDDAIAEDVLSAEFVVRNEHGLHARPGTMLVNTIKQFSSDITVTNLDGSGKPANGRSLMKVVALGVKKGHRLRFTAQGEDAQQALDAIGEAIAAGLGEGA” the “soluble on expression in E. coli” value was “not soluble”. For “MAHHHHHHMNVEVTGRCFFTGDDYYISLPITNRAANRGEPRQLLCSEMIHWDDYRQERGINDGKPPMQQLFASSYAEPLVRTFALGNDTYVTQVTGVSATQAGSSSQMFSAEMLHWDDYCAARGINAGEPTMASLFRPFESKSILVFDLNERKLTEFEGNSVALISYGADRQTYCSEMEHRDDYIRAKTGQAPQPSMASLFA”, the “soluble on expression in E. coli” value was “not soluble”. In the case of “MGSDKIHHHHHHMSQAIPSSRVGVKINEWYKMIRQFSVPDAEILKAEVEQDIQQMEEDQDLLIYYSLMCFRHQLMLDYLEPGKTYGNRPTVTELLETIETPQKKLTGLLKYYSLFFRGMYEFDQKEYVEAIGYYREAEKELPFVSDDIEKAEFHFKVAEAYYHMKQTHVSMYHILQALDIYQNHPLYSIRTIQSLFVIAGNYDDFKHYDKALPHLEAALELAMDIQNDRFIAISLLNIANSYDRSGDDQMAVEHFQKAAKVSREKVPDLLPKVLFGLSWTLCKAGQTQKAFQFIEEGLDHITARSHKFYKELFLFLQAVYKETVDERKIHDLLSYFEKKNLHAYIEACARSAAAVFESSCHFEQAAAFYRKVLKAQEDILKGRVFICLLRKKVMMCLAVTLVFGSMSFPTLTNSGGFKESTDRNTTYIDHSPYKLSDQKKALS”, the “soluble on expression in E. coli” value is reported as “not soluble”. In the case of “MFVGPSPPHTPLVNRRNINNHRPRNATVTSALPDIFLAAVSLLFLWSSPKPLVSLPPNRFSFPLNPRRRSITAMSRRSPPPPPPTQRFANPQSLSDWLESRLPSDSFAAWGVKPGTKNVHNLWLELSDGETSLADSTPPVRTVNVVTVRVIGKNGRILVEAHQELSDGSIRERFRPLSEKMKPEESPDEAVFRAIKEELGSIFNGDGDNIGQRIKILPGTYNRRVEERNSLSYPGLPARYALHSVNATVEGLPEQDFCTEEKEYEGGDSTKDSVETLAAGNAVTVKRHYWKWVSPDSIRS”, the “soluble on expression in E. coli” value is reported as “not soluble”. For “AIASFITNPSIFSGLKLSNAQRKVKSDLECIRKSKLFQRKRIVPERRRLGLVACGTEEDRTHQRSQWGGEDSDYFGRDPRKETEFWMEHAKEVLESKEVADAVEAHKKSGSSNLTEEQKAWLEFARSITPKPEDEE”, the “soluble on expression in E. coli” value was “soluble”. With “MAATSGTDEPVSGELVSVAHALSLPAESYGNDPDIEMAWAMRAMQHAEVYYKLISSVDPQFLKLTKVDDQIYSEFRKNFETLRIDVLDPEELKSESAKEKWRPFCLKFNGIVEDFNYGTLLRLDCSQGYTEENTIFAPRIQFFAIEIARNREGYNKAVYISVQDKEGEKGVNNGGEKRADSGEEENTKNGGEKGADSGEEKEEGINREDKTDKGGEKGKEADKEINKSGEKAM” the “soluble on expression in E. coli” value was “soluble”. In the case of “MGSDKIHHHHHHMSAPLLSVRDLSVAFHQGESQSLAVDHVSFDIAPGEILALVGESGSGKSVSAASILKLLPYPAASHPSGQILFDGRDLLTLSEPALRAVRGNDITMIFQEPMTSLNPLHSIEQQIGEILELHQSLTGDAARKRTLELLLQVGIREPEKRLSAFPHELSGGQRQRVMIAMALANRPKLLVADEPTTALDVTVQAQILELLAGLKREHGMSMLFITHDLGIVRKFADRVCVMTGGKIVESGPVEAIFANPQHAYTRKLLASEPRGVPPETDLAKPVVMEGQEIRVWFPIKAGFLRRVVDNVKAVDGVDLTLRAGQTLGVVGESGSGKTTLGLALARLISSRGRIGFLGKNIDGYSFKQMRPLRDRLQVVFQDPFGALSPRMSVGDIIAEGLRVHERGLTAAERDRRVCWALEEVGLDIATRWRYPHEFSGGQRQRIAIARAMVLKPRFVMLDEPTSALDMTVQAQVVDLLRDLQSRHDLAYLFISHDLKVVKALANDIIVMRSGKVVEQGPAQEVFTAPKQDYTKALLAAAFDLKAMNIGGVSQ”, the “soluble on expression in E. coli” value is reported as “not soluble”. For “SASHQEQSYKAGETRGKAQEKTGEAMGTMGDKTQAAKDKTQETAQSAQQKAHETAQSAKDKTSQAAQTTQERAQESKDKTGSYMSETGEAIKNKAHDAAEYTKETAEAGKEKTSGILGQTGEQVKQMAMGATDAVKHTLGLRTDEGNKEHVSSAPSTTTTTTTRETQRK”, the “soluble on expression in E. coli” value was “soluble”. In the case of “MENSDDIRLIVKIAQLYYEQDMTQAQIARELGIYRTTISRLLKRGRDQGMVTIAINYDYNENLWLEQQLKQKFGLKDVVVVSGNDEDEETQLAMMGLHGAQLLDRLLEPGDIVGFSWGRAVSALVENLPQAGQSRQLICVPIIGGPSGKLESRYHVNTLTYSAAAKLKGESHLADFPALLDNPLIRNGIMQSQHFKTISAYWDNLDIALVGIGSPAIRDGANWHAFYGGEESDDLNARQVAGDICSRFFDIHGAMVETNMSEKTLSIEMNKLKQARYSIGIAMSEEKYSGIIGALRGKYINCLVTNSSTAELLLK”, the “soluble on expression in E. coli” value is reported as “soluble”. For “MGSDKIHHHHHHMSFRMIEPETIDDAAFVSSTVPETDAPVWDASTDYPFSDPDNPEEVIVEVGQHAIYRAVAPSGPSHGGAVDPATDTGNTKWVKIRSTNRWRVFDEYIGDPSVQANSAQWVITAPKVIDSVSLFGLYALSVTVLVRDSGGAEVYNQTYSLQDESGVVDLYTYLTSPIILSDRLVITDIPPYAGAKVTVTAEASGEDVEVGQIVIGRKEEIGVTIDEIPLSIQDFSRKERDPDFGRVSLLEKDFADEMPVAFVFPTSRASYLKSRLASRRAKLTVYSSDGPYKANEFSVYGFYQSFQVVPRIGSESEGILELESIT”, the “soluble on expression in E. coli” value was “not soluble”. With “SLPWLHRETARSFGGAGSTAGYEQVTAYTLTGQLQSRHLNLPQLDCDYDWNDNGQLIRISGPQESREYRYSDTGRLTGVHTTAANLDIDIPYATDPAGNRLPDPELHPDSTLTAWPDNRIAEDAHYVYRYDEYGRLTEKTDRIPEGVIRMHDERTHHYHYDNQHRLVFYTRIQYGEPLVESRYLYDPLGRRTGKRVWRRERDLTGWMSLSRKPEVTWYGWDGDRLTTVQTGTTRIQTVYRPGSFTPLIRIETENGEREKAQRRSLAEKLQQEGSEDGHGVVFPAELVRMLDRLEEEIRADRVSSESRAWLAQCGLTVEQLEKQVEPEYTPARTLHLYHCDHRGLPLALISEDGNTAWSAEYDEWGNQLNEENPHHLHQPYRLPGQQHDEESGLYYNRHRYYDPLQGRYITPDPIGLRGGWNMYQYPLNPIQVIDPMGLDAIENMTSGGLIYAVSGVPGLIVANSITNSAYQFGYDMDAIVGGAHNGAADAMRYCYLMCRMTKT” the “soluble on expression in E. coli” value was “not soluble”. In the case of “MSLHRLASLPGGWTPAMEGVIIVEQTPAPLIFLTAADTDIQAIARVWPRLPGDFPDLRVCNLLNLQQSFSLDDYGDRVLGQAEVIVVRLLGGKSYWPYGLEVLGELTVTKPDLKLFVLPGDDRPDPSLMNQSTVPLTAVHCLWQYFAEGGTDNIRHGLMWLGDYGFGRNYRPPAPQMVPKVGIYRPEGHHHHHH”, the “soluble on expression in E. coli” value is reported as “soluble”. For “GPLGSSMEDHDDHLRRKFMEFPYVSPTRKQLMVDLMSTVENRLQSQLLPCNLPPDVRNFNNPNGSAEASLHIRSGDKSSPIDFVIGSWIHCKIPTGVSLNITSISGFLNSSTKAPNFVVELIQSSSKSLVLILDLPHRKDLVLNPDYLKEYYQDTALDSHRQSLLKLPEVNPYVSPSLFVRSAFSPTASMLKIDAEEEDKLEEILRDHVSPAAKEVLEVWLERCVKEEEEKIVVGEEERMELERRDKSFRRKSIEDDLDLQFPRMFGEEVSSRVVHAIKEAFGVL”, the “soluble on expression in E. coli” value was “soluble”. For “GPGSMRCIGMMEELVAEGCSAIKSRHDKTNEELGDLRLQVHQEYLEAFRRLYKTLGQLVYKKEKRLEEIDRNIRTTHIQLEFAIETFDPNAKKHSDAKKELYKLRAQVEEELEMLKDKMAQALEMFGPTEDALNQAGIEFVHPAEEVEDGNLTRRSKMVEYRAHLAKQEEVKIAAEREELKRSKTLQSQQYRGKTVQQITQ”, the “soluble on expression in E. coli” value was “soluble”. With “HHHHHHGCMSGRKPIIGVMGPGKADTAENQLVMANELGKQIATHGWILLTGGRSLGVMHEAMKGAKEAGGTTIGVLPGPDTSEISDAVDIPIVTGLGSARDNINALSSNVLVAVGMGPGTAAEVALALKAKKPVVLLGTQPEAEKFFTSLDAGLVHVAADVAGAIAAVKQLLAKLN” the “soluble on expression in E. coli” value was “soluble”. With “MAHHHHHHMRVYECDFYSHPAVCKYRLPKPYRHPTLDKRLREQRSVREARALVRCQKQGIAVPAVYAIDRESCAIVMERIIGMSVRDVLNEAQRPLEGAVSPVAARLLEGMGEVVGLLHNAHIIHGDLTTSNFMYRTATVAEGKADSAACGAAPRDRLVVLDFGLVMDKNSAEERAVDLYVLERAIKSSHPSLEGVASAFILNGYRRTADPHQVEATITRLGAVRARGRKRSMVG” the “soluble on expression in E. coli” value was “not soluble”. With “GSFTEGWVRFSPGPNAAAYLTLENPGDLPLRLVGARTPVAERVELHETFMREVEGKKVMGMRPVPFLEVPPKGRVELKPGGYHFMLLGLKRPLKAGEEVELDLLFAGGKVLKVVLPVEAR” the “soluble on expression in E. coli” value was “soluble”. For “MSRSSLVDPSFELSDPCPDIHALFIQFDARFFGGSLACCEVKWSPRMYACAGICSYEIRGGRGGLCSIRLSKPLLTLRPRSDLVETLLHEMIHAYLFVKERNRDRDGHGPQFQAHMHRINQAGGTNITIYHSFHDEVRLYKQHWWRCSGPCRDRRPFFGYVKRSCNRAPGPNDRWWSQHQQSCGGNFLKVKEPEGYGQGKGSKRTNDKNKSGGPALKKTITPPRVTLDDFFKKDGKNSSDNSTSKSPTKPSTSLFTGSGQKLGGSSSTSSLLNSYPKATQNSGGNRLGGTSGGVSRLLPPVNFTSPSSAPVAEQVIDLGDSDDDDFQDMDDDALEISFVASDNSVICPSCNTEVMENLIHGHLDYCLG”, the “soluble on expression in E. coli” value was “not soluble”. With “MNYQLVKQVRENNPLRKSFIDLAVKTFDLSFEEWYQQGYWTDAYIPYAFVERNKVIANASANIIDLRWQGEPRRYIQIGTVMTEPDHRNKGLAGQLIHHILQDWQQEADAFFLFANPTTVDFYPKFGFTRSEEYQYIMPVSPRAGDFRKLDMDSPDDVALLRHYYEKSNPFSPLRVEHNFGLLMFYCSAFMKHFVYYSAKNEAVVIAMQNGPVLICFDLFCDVGKSLSTLVNELADDHVYQAILGFTPSEDRLGEYEKIEGEDILFVYDQKENLFKDRKLMFPLLAHA” the “soluble on expression in E. coli” value was “not soluble”. In the case of “MDKLNKITVPASQKLRQLQKMVHDIKNNEGGIMNKIKKLKVKAPPSVPRRDYASESPADEEQQWSDDFDSDYENPDEHSDSEMYVMPAEENADDSYEPPPVEQETRPVHPALPFARGEYIDNRSSQRHSPPFSKTLPSKPSWPSEKARLTSTLPALTALQKPQVPPKPKGLLEDEADYVVPVEDNDENYIHPTESSSPPPEKAPMVNRSTKPNSSTPASPPGTASGRNSGAWETKSPPPAAPSPLPRAGKKPTTPLKTTPVASQQNASSVCEEKPIPAERHRGSSHRQEAVQSPVFPPAQKQIHQKPIPLPRFTEGGNPTVDGPLPSFSSNSTISEQEAGVLCKPWYAGACDRKSAEEALHRSNKDGSFLIRKSSGHDSKQPYTLVVFFNKRVYNIPVRFIEATKQYALGRKKNGEEYFGSVAEIIRNHQHSPLVLIDSQNNTKDSTRLKYAVKVS”, the “soluble on expression in E. coli” value is reported as “not soluble”.

Source: the DeepSol protein solubility set
